Experimental data from publication PMC1839166, “Type III Effector Activation via Nucleotide Binding, Phosphorylation, and Host Target Interaction” (PLoS Pathogens, 2007).

Columns and labels:
[1] = target: T1, avirulence protein B (AvrB), wild type (Pseudomonas syringae pv. glycinea, UniProt P13835 1-321); assay: ITC; VP-ITC microcalorimeter; RIN4_(142–176) peptide (50 to 450 μM) titrated in 6-μl injections into 5 to 25 μM wild-type or variant AvrB, stirring at 255 rpm; wild-type AvrB 6 μM with full-length RIN4 120 μM; nonbinding confirmed at as much as 25 μM and 450 μM; conditions: both partners purified
T1 construct: AvrB (avirulence protein B), type III effector of Pseudomonas syringae pv. glycinea; residues 26-53 and 56-321 are modelled in the AvrB/RIN4 structure; also called wild-type AvrB; source: E. coli BL21 Rosetta (pProEX-HTa), purified (nickel column, TEV digestion, Source Q, Sephacryl S200 if needed); not shown: His tag, N-terminal, cleaved
T1 sequence (P13835 whole entry, the tested form may be a part): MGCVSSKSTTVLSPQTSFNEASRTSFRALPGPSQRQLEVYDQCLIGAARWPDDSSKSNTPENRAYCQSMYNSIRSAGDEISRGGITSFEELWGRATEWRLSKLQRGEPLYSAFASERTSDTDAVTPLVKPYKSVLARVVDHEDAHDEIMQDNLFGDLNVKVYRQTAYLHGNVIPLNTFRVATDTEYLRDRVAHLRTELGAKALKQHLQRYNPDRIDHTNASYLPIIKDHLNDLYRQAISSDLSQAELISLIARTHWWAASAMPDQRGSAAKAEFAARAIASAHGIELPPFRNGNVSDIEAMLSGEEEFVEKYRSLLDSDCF

AvrB^QRY/AAA = target: T2, AvrB^QRY/AAA (Pseudomonas syringae pv. glycinea, UniProt P13835 1-321, QRY/AAA (Q208, R209, and Y210 to alanine)); assay: as above; conditions: both partners purified
T2 construct: AvrB (avirulence protein B), Pseudomonas syringae pv. glycinea; also called triple mutation of Q208, R209, and Y210 to alanine; source: E. coli BL21 Rosetta, purified (glutathione column, TEV digestion, Source Q); not shown: GST, N-terminal, cleaved
T2 sequence: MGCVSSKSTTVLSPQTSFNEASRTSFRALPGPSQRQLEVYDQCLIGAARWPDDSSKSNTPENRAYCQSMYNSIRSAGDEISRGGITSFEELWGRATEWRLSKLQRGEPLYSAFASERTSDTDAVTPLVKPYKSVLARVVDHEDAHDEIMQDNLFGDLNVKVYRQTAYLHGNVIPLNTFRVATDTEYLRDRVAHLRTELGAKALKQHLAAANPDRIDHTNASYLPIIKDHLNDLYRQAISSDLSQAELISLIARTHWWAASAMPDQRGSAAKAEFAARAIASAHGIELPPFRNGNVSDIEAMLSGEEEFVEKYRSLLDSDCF

B1: RIN4_(142–176) (peptide, UniProt Q8GYN5 142-176, looked up)
peptide: PEKVTVVPKFGDWDENNPSSADGYTHIFNKVREER
notes: the last four residues are printed as REER; residues 150-172 are modelled in the structure; also called RIN4 peptide
Kd [1]: 3 µM | Kd (AvrB^QRY/AAA): 9 µM
